In assay [1] the target is human TEM1 (endosialin, CD248) on cells (human) (UniProt Q9HCU0). The assay is described as follows: live cell-based ELISA, binding to MS1-TEM1 minus binding to MS1 cells; positive control.
For assay [2] the target is unchanged. The assay is described as follows: live cell-based ELISA on MS1-TEM1 cells; reference scFv78. For orientation: ELISA stands for enzyme-linked immunosorbent assay.
For assay [3] the target is unchanged. The assay is described as follows: live cell-based ELISA, binding to MS1-TEM1 minus binding to MS1 cells, HA-HRP detection.
The target of assay [4] is T1, human TEM1 recombinant protein fused to GST (rhTEM1-GST) (human) (UniProt Q9HCU0).
T1 sequence: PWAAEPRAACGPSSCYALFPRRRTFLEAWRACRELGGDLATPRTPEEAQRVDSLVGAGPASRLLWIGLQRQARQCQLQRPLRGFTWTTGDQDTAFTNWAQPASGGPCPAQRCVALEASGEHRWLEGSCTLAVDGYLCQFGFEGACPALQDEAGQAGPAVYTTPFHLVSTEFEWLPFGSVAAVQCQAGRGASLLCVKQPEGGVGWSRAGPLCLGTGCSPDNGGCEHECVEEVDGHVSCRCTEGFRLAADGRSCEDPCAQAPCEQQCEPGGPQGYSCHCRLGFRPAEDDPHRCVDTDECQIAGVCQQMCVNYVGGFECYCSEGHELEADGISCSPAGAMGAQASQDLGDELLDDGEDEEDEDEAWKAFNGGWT
The assay is described as follows: ELISA on plate-coated rhTEM1-GST, KD=2[Ab']t-[Ab]t.

Assay [5] addresses T1, human TEM1 recombinant protein fused to GST (rhTEM1-GST) (human). The assay is described as follows: ELISA on plate-coated rhTEM1-GST, KD=2[Ab']t-[Ab]t. The source holds these as a separate data set.

Values joined by “and” are separate entries in the source; they are usually repeats but may differ in a detail not shown here. Equal entries are not always repeated. Where two headings read alike, the source gives them in different places.

5 molecules from US9783610B2 can be followed below.

In assay [1], MORAB004 antibody (Morphotek, Inc) yielded a Kd of 0.27 nM.

B1: Anti-TEM1 scFv78-CH3 (protein)
chain: VQPVLTQPPSLSASPGASASLTCTLRSDINVGSYRISWYQQKPGSPPQYLLSYISDSDKQKGSGVPSRFSGSKDASANAGILLISGLQSEDEADYYCMIWHNSAGVFGGGTKLTVLGGGSSRSSSSGGGGSGGGGQVQLQESGGTLVQPGGSLRLSCEASGFTFSNYAMGWVRQTPGKGLEWLSAIRKSGTTTYYADSVKGRFIISRDNSKNTLYLQMNRLRVGDTATYYCATHPIAGYWGQGTLVTVSSASTKGPSVGGGSLIKDKTHTCPPCPSKAKGQPREPQVYTLPPSREEMTKNQVSLTCLVKGFYPSDIAVEWESNGQPENNYKTTPPVLDSDGSFFLYSKLTVDKSRWQQGNVFSCSVMHEALHNHYTQKSLSLSPGK
Turning to B1, in assay [2], the fold lower KD than scFv78 worked out at 5 fold. The Kd in assay [3] was 0.34 nM.

B2: Anti-TEM1 scFv78-minibody (scFv)
chain: VQPVLTQPPSLSASPGASASLTCTLRSDINVGSYRISWYQQKPGSPPQYLLSYISDSDKQKGSGVPSRFSGSKDASANAGILLISGLQSEDEADYYCMIWHNSAGVFGGGTKLTVLGGGSSRSSSSGGGGSGGGGQVQLQESGGTLVQPGGSLRLSCEASGFTFSNYAMGWVRQTPGKGLEWLSAIRKSGTTTYYADSVKGRFIISRDNSKNTLYLQMNRLRVGDTATYYCATHPIAGYWGQGTLVTVSSASTKGPSVGGGSLIKDKTHTCPPCPAPEL
Consider B2, for which the fold lower KD than scFv78 in assay [2] came to 5 fold. In addition, the equilibrium dissociation constant (Kd) in assay [3] amounted to 0.45 nM.

B3: scFv-78 (scFv)
scFv: VQPVLTQPPSLSASPGASASLTCTLRSDINVGSYRISWYQQKPGSPPQYLLSYISDSDKQKGSGVPSRFSGSKDASANAGILLISGLQSEDEADYYCMIWHNSAGVFGGGTKLTVLGGGSSRSSSSGGGGSGGGGQVQLQESGGTLVQPGGSLRLSCEASGFTFSNYAMGWVRQTPGKGLEWLSAIRKSGTTTYYADSVKGRFIISRDNSKNTLYLQMNRLRVGDTATYYCATHPIAGYWGQGTLVTVSSASTKGPS
Turning to B3, the Kd was 4.3 nM in assay [4]; 5.8 nM and 4.5 nM and 2.8 nM in assay [5].

B4: scFv78 (expressed in 293F cells, purified on anti-HA beads) (scFv)
scFv: VQPVLTQPPSLSASPGASASLTCTLRSDINVGSYRISWYQQKPGSPPQYLLSYISDSDKQKGSGVPSRFSGSKDASANAGILLISGLQSEDEADYYCMIWHNSAGVFGGGTKLTVLGGGSSRSSSSGGGGSGGGGQVQLQESGGTLVQPGGSLRLSCEASGFTFSNYAMGWVRQTPGKGLEWLSAIRKSGTTTYYADSVKGRFIISRDNSKNTLYLQMNRLRVGDTATYYCATHPIAGYWGQGTLVTVSSASTKGPS
With B4, in assay [3], the Kd was determined as 2.08 nM.

A word on the Kd: it is a measure of binding affinity in units of concentration.
